Test results taken from patent US8987433B2, “Variant isoprenoid producing enzymes and uses thereof” (Sapphire Energy, Inc., priority 2009, dated 2015).
Entries after “also recorded” stand apart in the source; their conditions may differ. Read-outs that look alike come from different tables or passages of the source.

How the values were obtained:
[1] = system: E. coli XL1-blue cells; assay: Minimum inhibitory concentration (MIC) of cefotaxime on plated bacterial cells; assay type: cell-based; conditions: for MIC: Escherichia coli, XL1BLUECELLS, 24 h, about 1,000 cells per plate, 24 hours at 37° C.
Protocol: The minimum inhibitory concentration (MIC) of cefotaxime on bacterial cells lacking a plasmid is determined by plating 10 μl of a 10^−2 dilution of an overnight bacterial culture (about 1000 cfu) of E. coli XL1-blue cells (Stratagene, San Diego Calif.) on plates with varying levels of cefotaxime (Sigma, St. Louis Mo.), followed by incubation for 24 hours at 37° C.
Growth on cefotaxime is sensitive to the density of cells, and therefore similar numbers of cells needed to be plated on each plate (obtained by plating on plain LB plates). Platings of 1000 cells are consistently performed.
After digestion of the 900 bp product with the terminal restriction enzyme SfiI and agarose gel purification, the 900 bp product is ligated into the vector pUC182Sfi at the unique SfiI site with T4 DNA ligase (BRL, Gaithersburg Md.). The mixture is electroporated into E. coli XL1-blue cells and plated on LB plates with 0.32-0.64 μg/ml of cefotaxime (Sigma, St. Louis Mo.). The cells were grown for up to 24 hours at 37° C. and the resulting colonies are scraped off the plate as a pool and used as the PCR template for the next round of shuffling.
The transformants obtained after each of three rounds of shuffling are plated on increasing levels of cefotaxime. The colonies (>100, to maintain diversity) from the plate with the highest level of cefotaxime are pooled and used as the template for the PCR reaction for the next round.
Colonies obtained at 5-10 μg/ml are used for a third round similar to the first and second rounds except the cells are plated on LB plates having 80-160 μg/ml of cefotaxime. After the third round, colonies are obtained at 80-160 μg/ml, and after replating on increasing concentrations of cefotaxime, colonies could be obtained at up to 320 μg/ml after 24 hours at 37° C.
Growth on cefotaxime is dependent on the cell density, requiring that all the MICs be standardized (in our case to about 1,000 cells per plate). […] The 5 largest colonies grown at 1,280 μg/ml are plated for single colonies twice, and the SfiI inserts are analyzed by restriction mapping of the colony PCR products.

[2] = system: Gallus gallus FPP synthase (prenyl transferase activity); assay: Detection of prenyl transferase activity by luminescence measurement (PPi light assay); assay type: biochemical; conditions: DMAPP and IPP substrates, two hours at room temperature, in vitro synthesized Strep-Tag protein, versus wild type control
Protocol: After gene assembly was completed, the NEB PURExpress in vitro protein synthesis kit was used according to the manufacturer's instructions to produce the variant FPP synthase proteins. After protein synthesis, Strep-Tag magnetic beads (IBA GmbH) were used to isolate the synthesized proteins, after washing the beads with assay buffer (25 mm HEPES pH 7.4, 10 mM MgCl2).
After synthesis, the activity level of the synthesized protein was measured as described in Example 5 by luminescence. Because most mutations are anticipated to be detrimental, it is unlikely for any pool of mutants to have a higher activity than the wild-type protein; pools with higher activity than […] must be deconvoluted to identify individual beneficial mutants.
The residue numbers are reported using the wild-type sequence numbering (SEQ ID NO: 1). The winning pools of nine variants are again resynthesized as discrete mutants and activity measurements are repeated.
This example describes the detection of prenyl transferase activity by luminescence measurement. In this example, an avian FPP synthase (Genbank Accession No. P08836) (SEQ ID NO: 1) was used as the parent prenyl transferase. The parent prenyl transferase was codon-optimized (SEQ ID NO: 21) and inserted into a vector. The nucleic acid sequence of SEQ ID NO: 22 was cloned into the bacterial expression vector pET-21a(+) (FIG. 10) under the control of a T7 promoter. A reaction buffer was produced by mixing 4 μl of 10× reaction buffer (250 mM HEPES pH 7.4, 100 mM MgCl2), 0.2 μl of 1M dithiothreitol, 1 μl of 10 mM DMAPP, 2 μl of 10 mM IPP, and 31.8 μl of water. 1 ng of the Avian FPP synthase (SEQ ID NO: 22) was added to the 39 μl of reaction buffer in a white 96 well microplate. The reaction was sealed with an adhesive plastic cover and allowed to progress for two hours at room temperature.
The PPi light detection and conversion reagents were prepared as instructed by the manufacturer (Lonza Group Ltd., Basel, Switzerland). After the two hour incubation, 40 μl of the conversion reagent, and 40 μl of the detection reagent were added to the wells of the microplate, and the microplate was sealed with an aluminum foil cover. After sixty minutes, the aluminum cover was removed, and the luminescence emitted from each well was measured with a 96 well plate reader in glow luminescence mode. The total luminescence is reported as Relative Luminescence Units (RLU). […] For this study, each pool is a mixture of variants at a single amino acid position.

For CO/N=C(\C(=O)N[C@@H]1C(=O)N2C(C(=O)O)=C(COC(C)=O)CS[C@H]12)c1csc(N)n1 [cefotaxime], the MIC ([1]; read-out: MIC of cefotaxime, cells carrying the starting (unshuffled) gene on pUC18 derivative) was roughly 0.02 µg/mL, the MIC ([1]; read-out: MIC of cefotaxime, mutant after the third round of shuffling and replating) was 320 µg/mL and the “cefotaxime level at which growth is obtained” value ([1]; at higher cell densities, after third round of shuffling) was “up to 1280 μg/ml”. The “fold increased resistance to cefotaxime” value ([1]; selected mutant versus starting gene) was 16,000 fold.

B1: Thr269Tyr: Gallus gallus FPP synthase (SEQ ID NO: 1) point mutation Thr269Tyr (protein, listed as Gallus gallus)
chain: MHKFTGVNAKFQQPALRNLSPVVVEREREEFVGFFPQIVRDLTEDGIGHPEVGDAVARLKEVLQYNAPGGKCNRGLTVVAAYRELSGPGQKDAESLRCALAVGWCIELFQAFFLVADDIMDQSLTRRGQLCWYKKEGVGLDAINDSFLLESSVYRVLKKYCRQRPYYVHLLELFLQTAYQTELGQMLDLITAPVSKVDLSHFSEERYKAIVKYKTAFYSFYLPVAAAMYMVGIDSKEEHENAKAILLEMGEYFQIQDDYLDCFGDPALYGKVGTDIQDNKCSWLVVQCLQRVTPEQRQLLEDNYGRKEPEKVAKVKELYEAVGMRAAFQQYEESSYRRLQELIEKHSNRLPKEIFLGLAQKIYKRQK
In the case of B1, the “prenyl transferase activity measured by luminescence, compared with wild type” value [2] is reported as “increased prenyl transferase activity as compared to the wild type protein; also recorded: activity greater than wild-type” and the “prenyl transferase activity measured by luminescence, compared with wild type” value ([2]; listed as Thr—269_Tyr) is reported as “more activity than the wild type protein sequence”.

B2: Thr269Asp: Gallus gallus FPP synthase (SEQ ID NO: 1) point mutation Thr269Asp (protein, listed as Gallus gallus)
chain: MHKFTGVNAKFQQPALRNLSPVVVEREREEFVGFFPQIVRDLTEDGIGHPEVGDAVARLKEVLQYNAPGGKCNRGLTVVAAYRELSGPGQKDAESLRCALAVGWCIELFQAFFLVADDIMDQSLTRRGQLCWYKKEGVGLDAINDSFLLESSVYRVLKKYCRQRPYYVHLLELFLQTAYQTELGQMLDLITAPVSKVDLSHFSEERYKAIVKYKTAFYSFYLPVAAAMYMVGIDSKEEHENAKAILLEMGEYFQIQDDYLDCFGDPALDGKVGTDIQDNKCSWLVVQCLQRVTPEQRQLLEDNYGRKEPEKVAKVKELYEAVGMRAAFQQYEESSYRRLQELIEKHSNRLPKEIFLGLAQKIYKRQK
With B2 the “prenyl transferase activity measured by luminescence, compared with wild type” value [2] was “increased prenyl transferase activity as compared to the wild type protein; also recorded: activity greater than wild-type” and the “prenyl transferase activity measured by luminescence, compared with wild type” value ([2]; listed as Thr—269_Asp) was “more activity than the wild type protein sequence”.

B3: Thr269Gln: Gallus gallus FPP synthase (SEQ ID NO: 1) point mutation Thr269Gln (protein, listed as Gallus gallus)
chain: MHKFTGVNAKFQQPALRNLSPVVVEREREEFVGFFPQIVRDLTEDGIGHPEVGDAVARLKEVLQYNAPGGKCNRGLTVVAAYRELSGPGQKDAESLRCALAVGWCIELFQAFFLVADDIMDQSLTRRGQLCWYKKEGVGLDAINDSFLLESSVYRVLKKYCRQRPYYVHLLELFLQTAYQTELGQMLDLITAPVSKVDLSHFSEERYKAIVKYKTAFYSFYLPVAAAMYMVGIDSKEEHENAKAILLEMGEYFQIQDDYLDCFGDPALQGKVGTDIQDNKCSWLVVQCLQRVTPEQRQLLEDNYGRKEPEKVAKVKELYEAVGMRAAFQQYEESSYRRLQELIEKHSNRLPKEIFLGLAQKIYKRQK
In the case of B3, the “prenyl transferase activity measured by luminescence, compared with wild type” value [2] is reported as “increased prenyl transferase activity as compared to the wild type protein; also recorded: activity greater than wild-type” and the “prenyl transferase activity measured by luminescence, compared with wild type” value ([2]; listed as Thr—269_Gln) is reported as “more activity than the wild type protein sequence”.
